Measurements: publication PMC8287954
Substitutions are numbered along the chain they refer to. Names and notes keep the numbering of the source. One block for each binder: values may come before it.

Columns and labels:
Test in all cases: SEC-MALS
[1] = molecular target: hsSMNΔ5(T274I)•Gemin2, Q16637;O14893; conditions: chain shown with the change; 20°C; peak concentration 0.5 µM; parent: 231 (188-454)
[2] = molecular target: hsSMNΔ5(H273R)•Gemin2, Q16637;O14893; conditions: chain shown with the change; 20°C; peak concentration 0.5 µM; parent: 231 (188-454)
[3] = molecular target: hsSMNΔ5(G279V)•Gemin2, Q16637;O14893; conditions: chain shown with the change; 20°C; peak concentration 0.3 µM; parent: 231 (188-454)

other: SEC-MALS Mw [1]: 198
B1: hsSMNΔ5•Gemin2 complex, O14893 T274I (protein)
chain 1: MAMSSGGSGGGVPEQEDSVLFRRGTGQSDDSDIWDDTALIKAYDKAVASFKHALKNGDICETSGKPKTTPKRKPAKKNKSQKKNTAASLQQWKVGDKCSAIWSEDGCIYPATIASIDFKRETCVVVYTGYGNREEQNLSDLLSPICEVANNIEQNAQENENESQVSTDESENSRSPGNKSDNIKPKSAPWNSFLPPPPPMPGPRLGPGKIIPPPPPICPDSLDDADALGSMLISWYMSGYHIGYYMGFRQNQKEGRCSHSLN
chain 2: MAWVPAESAVEELMPRLLPVEPCDLTEGFDPSVPPRTPQEYLRRVQIEAAQCPDVVVAQIDPKKLKRKQSVNISLSGCQPAPEGYSPTLQWQQQQVAQFSTVRQNVNKHRSHWKSQQLDSNVTMPKSEDEEGWKKFCLGEKLCADGAVGPATNESPGIDYVQIGFPPLLSIVSRMNQATVTSVLEYLSNWFGERDFTPELGRWLYALLACLEKPLLPEAHSLIRQLARRCSEVRLLVDSKDDERVPALNLLICLVSRYFDQRDLADEPS

other: SEC-MALS Mw [2]: 266
B2: hsSMNΔ5•Gemin2 complex, O14893 H273R (protein)
chain 1: B1 chain 1 with H241R, I242T
chain 2: B1 chain 2

other: SEC-MALS Mw [3]: 384
B3: hsSMNΔ5•Gemin2 complex, O14893 G279V (protein)
chain 1: B1 chain 1 with I242T, G247V
chain 2: B1 chain 2
